In patent publication US20060035302A1, “Kinase substrates with multiple phosphorylation sites” (Applera Corporation, priority 2004, published 2006):
[ ]: non-standard residue; d: D form. The star is where a group is joined. dye2 = 5-carboxy-2′,7′-dipyridyl-sulfonefluorescein (Dye 2); Undecanoyl = CCCCCCCCCCC(=O)*; code O = not defined here

Assays:
[1] = cited from earlier work
[2] = Net charge of substrate from its charged groups; assay type: physicochemical; conditions: pH 7.6; unphosphorylated substrate
Text: The net charge of the substrate can be established by including an appropriate number of negatively and positively charged groups in the substrate. For example, to establish a net neutral charge (net charge=0), the substrate is designed to contain an equal number of positively and negatively charged groups. […] Aspartate and glutamate contain carboxyl side chains having a single negative charge. A phosphoserine residue carries two negative charges on a phosphate group. […] In addition, the fluorescent moiety may also contain charged groups that should be considered to obtain a particular net charge of the substrate.
This is offset by the guanidinium groups in the two arginine residues, for a total of two positive charges. Thus, the net charge of the compound is about 0 at pH 7.6.

protein kinase p38βII = protein kinase p38βII (Homo sapiens, UniProt Q15759); experiment: Fluorogenic protein kinase assay, real-time fluorescence in 384-well plates; assay type: biochemical; conditions: substrate 8 μM; 10 and 100 μM ATP; compared with the kinase substrate with one recognition moiety (FIGS. 6A-6B)
Protocol: Kinase assays were performed using Coming 384-well, black, non-binding surface (NBS), microwell plates. Fluorescence was read in real time using a […] Gemini XS plate reader, with excitation and emission set at 500 and 550 respectively. The plate was read every minute for one hour at ambient temperature
Concentrations of dye-labeled peptides were determined by dilution of the purified peptides into dimethylformamide (200 μL) with 1 M NaOH (5 μL) and measuring the absorbance of either 5-carboxy-2′,7′-dipyridyl-sulfonefluorescein (i.e. dye2) at its absorbance maximum (548 nm) or 2′,7′,4,7-tetachloro-5-carboxy fluorescein (i.e. 2′,7′-dichloro-5-carboxy-4,7-dichlorofluorescein or “tet”) at its absorbance maximum (541 nm). The extinction coefficient of both dyes was assumed to be 80,000 cm^−1M^−1.
[…] The solution was pipetted into wells of a 384-well plate ([…] per well). Varying concentrations of ATP (final conc 10 and 100 μM) were added to the wells to initiate the kinase reaction. The plate was read at 500 nm excitation, 550 nm emission, each minute for 1 hour. The signal to background ratio for the kinase substrate with two recognition moieties (compound 2) was improved as compared to the signal to background ratio for the kinase substrate with one recognition moiety.

[3] = molecular target: T1, C11OOK(dye 2)RRIPLSPOOK(C11)NH2
T1 chain: KRRIPLSPK

[4] = molecular target: T2, C11-OOK(dye2)RRIPLSPLSPOOK(C11)-amide
T2 chain: KRRIPLSPLSPK

**Q.** With N[C@@H](CS)C(=O)O [Cysteine (C), Cysteine] as the molecule, how does the “pK / pKa of side chain” value [1] read?
**A.** about 8

**Q.** For N[C@@H](Cc1c[nH]cn1)C(=O)O [Histidine (H), Histidine], which “pK / pKa of side chain” value [1] is on record?
**A.** about 7

**Q.** Which net charge [2] does the source give for “C11—OOK(dye2)RRIPLSPLSPOOK(C11)-amide ({Undecanoyl-code O-code O}-K(dye2)RRIPLSPLSP[code O][code O]K(Undecanoyl)-NH2; reading uncertain; also: printed as C11—OOK(dye2)RRIPLSPLSPOOK(C11)-amide) [compound 2, kinase substrate for p38βII; two recognition moieties, two hydrophobic moieties, Dye2]” here?
**A.** about 0

**Q.** What about the “signal to background ratio” value (protein kinase p38βII) of the same molecule?
**A.** improved signal to background ratio

B1: protein kinase p38βII (protein)
chain: MSGPRAGFYRQELNKTVWEVPQRLQGLRPVGSGAYGSVCSAYDARLRQKVAVKKLSRPFQSLIHARRTYRELRLLKHLKHENVIGLLDVFTPATSIEDFSEVYLVTTLMGADLNNIVKCQALSDEHVQFLVYQLLRGLKYIHSAGIIHRDLKPSNVAVNEDCELRILDFGLARQADEEMTGYVATRWYRAPEIMLNWMHYNQTVDIWSVGCIMAELLQGKALFPGSDYIDQLKRIMEVVGTPSPEVLAKISSEHARTYIQSLPPMPQKDLSSIFRGANPLAIDLLGRMLVLDSDQRVSAAEALAHAYFSQYHDPEDEPEAEPYDESVEAKERTLEEWKELTYQEVLSFKPPEPPKPPGSLEIEQ
**Q.** Which “rate of reaction / signal to background ratio (fluorescence kinase assay, 10 and 100 µM ATP)” value [3] does the source give for B1 here?
**A.** comprising two protein kinase recognition moieties has an improved signal to background ratio as compared to the kinase substrate comprising one protein kinase recognition moiety, C11OOK(dye 2)RRIPLSPOOK(C11)NH2

**Q.** And the “signal to background ratio (fluorescence kinase assay, 10 and 100 µM ATP)” value [4]?
**A.** The signal to background ratio for the kinase substrate with two recognition moieties (compound 2) was improved as compared to the signal to background ratio for the kinase substrate with one recognition moiety

**Q.** And the “signal to background ratio, fold improvement over the substrate with one recognition moiety” value [4]?
**A.** improved the signal to background ratio 3 to 5 fold
